The source of these data is patent publication US20100129806A1.

In test [1] the target is myc-IP6K2 E138-9A mutant (glutamates 138 and 139 mutated) (human) (UniProt Q9UHH9). Nature of the test: cell-based or functional assay.
Test [2] addresses myc-IP6K2 R133A mutant (human) (UniProt Q9UHH9). Nature of the test: cell-based or functional assay.

myc-IP6K2 E138-9A mutant (glutamates 138 and 139 mutated) (human), sequence (Q9UHH9 other isoform, or with tags, fused parts or gaps mutant): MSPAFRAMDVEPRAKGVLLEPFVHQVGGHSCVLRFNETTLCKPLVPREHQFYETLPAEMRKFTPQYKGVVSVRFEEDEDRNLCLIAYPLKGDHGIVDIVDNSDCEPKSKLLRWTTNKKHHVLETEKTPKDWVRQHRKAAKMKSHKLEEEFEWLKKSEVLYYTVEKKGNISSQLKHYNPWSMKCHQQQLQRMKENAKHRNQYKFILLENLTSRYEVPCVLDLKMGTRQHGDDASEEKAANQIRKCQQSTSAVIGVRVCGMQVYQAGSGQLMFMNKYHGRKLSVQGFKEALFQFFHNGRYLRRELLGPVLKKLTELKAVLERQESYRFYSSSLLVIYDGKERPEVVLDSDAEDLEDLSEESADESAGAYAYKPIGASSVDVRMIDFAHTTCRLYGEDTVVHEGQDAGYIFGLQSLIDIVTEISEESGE
myc-IP6K2 R133A mutant (human), sequence (Q9UHH9 whole entry R133A): as the sequence (Q9UHH9 other isoform, or with tags, fused parts or gaps mutant) above, with R133A, A138E, A139E counted along it

In the case of “endogenous HSP90 of human cells (HEK 293, HeLa), also used purified from HeLa cells (from UniProt P07900 2-732)”, in test [1], the IP6K2 enzyme activity in vivo (fold of IP6K2wt) was found to be 2 and the cell death of transfected HeLa cells (fold of wild type IP6K2) was determined as 5. In test [2], this substance had an IP6K2 enzyme activity in vivo (fold of IP6K2wt) of 2 and a cell death of transfected HeLa cells (fold of wild type IP6K2) of 5.
